B1: RIG-I-QQ (protein)
chain: MTTEQRRSLQAFQDYIRKTLDPTYILSYMAPWFREEEVQYIQAEKNNKGPMEAATLFLKFLLELQEEGWFRGFLDALDHAGYSGLYEAIESWDFKKIEKLEEYRLLLKRLQPEFKTRIIPTDIISDLSECLINQECEEILQICSTKGMMAGAEKLVECLLRSDKENWPKTLKLALEKERNKFSELWIVEKGIKDVETEDLEDKMETSDIQIFYQEDPECQNLSENSCPPSEVSDTNLYSPFKPRNYQLELALPAMKGKNTIICAPTGCGKTFVSLLICEHHLKKFPQGQKGKVVFFANQIPVYEQQKSVFSKYFERHGYRVTGISGATAENVPVEQIVENNDIIILTPQILVNNLKKGTIPSLSIFTLMIFDECHNTSKQHPYNMIMFNYLDQKLGGSSGPLPQVIGLTASVGVGDAKNTDEALDYICKLCASLDASVIATVKHNLEELEQVVYKPQKFFRKVESRISDKFKYIIAQLMRDTESLAKRICKDLEQLSQIQNREFGTQKYEQWIVTVQKACMVFQMPDKDEESRICKALFLYTSHLRKYQDALIISEHARMKDALDYLKDFFSNVRAAGFEEIEQDLTQRFEEKLQELESVSRDPSNENPKLEDLCFILQEEYHLNPETITILFVKTRALVDALKNWIEGNPKLSFLKPGILTGRGKTNQNTGMTLPAQKCILDAFKASGDHNILIATSVADEGIDIAQCNLVILYEYVGNVIKMIQTRGRGRARGSKCFLLTSNAGVIEKEQINMYKEKMMNDSILRLQTWDEAVFREKILHIQTHEKFIRDSQEKPKPVPDKENKKLLCRKCKALACYTADVRVIEECHYTVLGDAFKECFVSRPHPKPKQFSSFEKRAKIFCARQNCSHDWGIHVKYKTFEIPVIKIESFVVEDIATGVQTLYSKWKDFHFEKIPFDPAEMSK

Key:
cGAS [1] = test: Real-time PCR in THP-1 cells stably expressing UL37, transfected with HT-DNA; assay type: cell-based, human; conditions: THP-1 stable cell lines
Method: THP-1 or L929 cells were infected with HSV-1 (MOI=5) or stimulated with HT-DNA (2 μg/ml) or cGAMP (2 μg/ml) for 6 h unless specifically indicated otherwise. Cells were washed with cold PBS, and total RNA was extracted by using TRIzol Reagent (Invitrogen). RNA was digested with DNase I (New England Biolabs) to remove genomic DNA. One microgram of total RNA was used for reverse transcription with PrimeScript Reverse Transcriptase (Clontech) according to the manufacturer's instruction. Approximately 0.5% of the cDNA was used as template in each quantitative real-time PCR (qRT-PCR) reaction with SYBR master mix (Applied biosystems).
Lentivirus production was carried out in 293T cells as described previously. THP-1 or L929 cells were infected with lentivirus containing UL37 or UL37 C819S mutant. After 36 h, THP-1 cells were selected with puromycin at 1 μg/ml and L929 cells were selected with puromycin at 5 μg/ml.

PRDIII promoter = test: Dual-luciferase reporter assay (PRDIII, SeV infection); assay type: cell-based, human; conditions: 293T cells, SeV 100 HAU/ml
Method: HEK293T cells, seeded in 24-well plates (˜50% cell density), were transfected with IFN-β, PRDIII (ISRE) or NF-κB reporter plasmid cocktail (50 ng of luciferase reporter plasmid and 5 ng of pRL Renilla luciferase control vector) and expression plasmid (empty plasmid, one or multiple plasmids depending on the experiment) by calcium phosphate precipitation. Cells were infected with SeV (100 HA/ml), HSV-1 for 16 h, transfected with Poly [I:C] for 16 h or directly harvested 30-36 h post transfection. Whole cell lysates were used to determine the activity of firefly luciferase and renilla luciferase by a microplate reader (FLUOstar Omega).

cGAS [2] = target: T1, cGAS (Mus musculus, UniProt Q8C6L5); test: In vitro cGAMP activity assay; assay type: biochemical; conditions: in vitro cGAMP reaction
T1 construct: Purified mcGAS(141-507) was deamidated by purified FLAG-UL37 in vitro; made in house; host or cells: E. coli BL21 (DE3)
Method: 1 μM of MBP-cGAS or mutant proteins was mixed with 100 μM ATP and 100 μM GTP and 10 μCi [α-P32]-ATP in reaction buffer (20 mM Tris-Cl [pH 7.5], 150 mM NaCl, 5 mM MgCl2, 1 mM dithiothreitol [DTT]). After 2 h of incubation at 37° C., 2 μl of reaction solution was spotted onto PEI-Cellulose thin layer chromatography plate (Sigma). Reaction products were resolved with running buffer (1 M (NH4)2SO4, 1.5 M KH2PO4, pH 3.8). The TLC plates were dried and scanned with Phosphoimager (Fuji).

cGAS [3] = test: cGAMP reporter assay (THP1-Lucia); assay type: cell-based, human; conditions: THP-1 cells transfected with HT-DNA (HT-DNA alone approximately 60 ng)
Method: THP-1 Cells were transfected with HT-DNA (2 μg/ml) or infected with HSV-1 virus for 6 h. Cell extracts were prepared by heating at 95° C. for 5 min to denature most proteins, and then the precipitated proteins were removed by centrifugation. The supernatant containing cGAMP was delivered to digitonin-permeabilized (2.5 μg/ml for 30 min) THP1-Lucia cells at 37° C. for 30 min. The cells were cultured for another 20 h before Lucia reporter activity was measured according to the manufacturer's instruction (InvivoGen). Pure cGAMP was diluted and used as standard for the assay.

cGAS [4] = test: In vitro deamidation assay (cGAS); assay type: biochemical, mouse; conditions: purified proteins
Method: The in vitro deamidation assay was performed as previously described. Briefly, 5 μg of purified MBP-mcGAS or MBP-mcGAS-DDEE mutant on amylose resin was incubated with 0.5 gig of purified FLAG-UL37 or FLAG-UL37C819S at 30° C. for 45 min in deamidation buffer (50 mM Tris-HCl [pH 7.5], 100 mM NaCl, and 5 mM MgCl2). Then the reaction was stopped by adding rehydration buffer and the eluted proteins were analyzed by two-dimensional gel electrophoresis.

RIG-I [5] = test: Two-dimensional gel electrophoresis of RIG-I deamidation in cells; assay type: cell-based, human; conditions: 2-DGE and immunoblotting
Method: Cells (1×10^6) were lysed in 150 μl rehydration buffer (8 M Urea, 2% CHAPS, 0.5% IPG Buffer, 0.002% bromophenol blue) by three pulses of sonication and whole cell lysates were centrifuged at 20,000 g for 15 min. Supernatants were loaded to IEF strips for focusing with a program comprising: 20 V, 10 h (rehydration); 100 V, 1 h; 500 V, 1 h; 1000 V, 1 h; 2000 V, 1 h; 4000 V, 1 h; 8000 V, 4 h. After IEF, strips were incubated with SDS equilibration buffer (50 mM Tris-HCl [pH8.8], 6 M urea, 30% glycerol, 2% SDS, 0.001% Bromophenol Blue) containing 10 mg/ml DTT for 15 min and then SDS equilibration buffer containing 2-iodoacetamide for 15 min. Strips were washed with SDS-PAGE buffer, resolved by SDS-PAGE, and analyzed by immunoblotting.

RIG-I [6] = test: Gel filtration of purified RIG-I (oligomerization); assay type: cell-based, human; conditions: cells infected with HSV-1, 4 h
Method: Virus-infected HEK293T/Flag-RIG-I or HeLa/Flag-RIG-I stable cells were harvested and lysed in cold Triton X-100 buffer (20 mM Tris, pH 7.5, 150 mM NaCl, 1.5 mM MgCl2, 20 mM β-glycerophosphate, 1 mM sodium orthovanadate, 10% glycerol, 0.5 mM EGTA, 0.5% Triton X-100, 1 mM PMSF and 10 μg/ml leupeptin). Centrifuged supernatant was filtered and subjected to incubation with anti-Flag-conjugated agarose beads for 2 h at 4° C. Beads were then extensively washed and proteins were eluted with 3× Flag peptide at 0.2 mg/ml.
Gel filtration with superose 6 was performed as described previously. Briefly, eluted proteins (200-300 μl) were loaded to superose 6 column and subjected to gel filtration analysis with Buffer B (20 mM Tris-HCl, pH 7.6, 150 mM NaCl, 1 mM EDTA, 0.5 mM EGTA, 0.5% Triton X-100, 20 mM NaF, 20 mM β-glycerophosphate, 1 mM Na3VO4, 2.5 mM metabisulphite [sodium salt], 5 mM benzamidine). Elution was collected in 0.5 ml fractions and aliquots of fractions were analyzed by immunoblotting.

HSV-1 = HSV-1 plaque assay in HEK293 cells stably expressing RIG-I wild-type or mutants; assay type: cell-based; conditions: HEK293 stable cells, HSV-1 MOI=0.5
IFN-β and RANTES = test: Cytokine ELISA, HEK293 RIG-I stable cell lines infected with HSV-1; assay type: cell-based, human; conditions: HSV-1-infected cells, supernatant at 16 hpi
Method: Commercial cytokine ELISA kits used in this study include: human IFN-β (PBL Assay Science) and human RANTES (R&D Systems). Cytokine levels in the supernatant from cultured cells were assessed according to manufacturer's instruction. Absorbance was determined with FLUOstar Omega (BMG Labtech.).

T1 sequence (Q8C6L5 141-507): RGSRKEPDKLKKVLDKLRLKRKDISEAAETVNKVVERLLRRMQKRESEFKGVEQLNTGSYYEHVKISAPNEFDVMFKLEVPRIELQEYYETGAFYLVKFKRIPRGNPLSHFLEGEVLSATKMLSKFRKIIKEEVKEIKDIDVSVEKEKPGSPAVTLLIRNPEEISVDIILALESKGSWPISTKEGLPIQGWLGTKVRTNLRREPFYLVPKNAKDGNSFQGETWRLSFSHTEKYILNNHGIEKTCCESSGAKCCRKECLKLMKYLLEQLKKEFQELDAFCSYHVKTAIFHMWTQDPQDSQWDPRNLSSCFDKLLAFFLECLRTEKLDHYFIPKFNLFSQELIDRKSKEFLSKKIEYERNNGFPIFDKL

Molecule | effect on expression of IFNB1, ISG56 and CXCL10 induced by HT-DNA (cGAS [1]) | blockade of SeV-induced PRDIII promoter activation (PRDIII promoter) | effect of added UL37 on cGAS-mediated cGAMP production (cGAS [2]) | intracellular cGAMP (cGAS [3]) | cGAS deamidation in vitro (2DGE shift) (cGAS [4]) | charge shift of RIG-I (deamidation) upon UL37 expression or recombinant HSV-1 infection (RIG-I [5]) | size of RIG-I elution fractions (oligomerization) (RIG-I [6]) | reduction of HSV-1 replication / titer (HSV-1) | IFN-β and RANTES in supernatant (IFN-β and RANTES)
UL37C819S | no detectable effect on IFNB1 and ISG56 expression | greatly impaired blockade of PRDIII induction by SeV | less, albeit still significant, inhibition of cGAMP production | ~85 ng per one million THP-1 cells | failed to do so | – | – | – | –
B1 | – | – | – | – | – | deamidation-resistant | 440-670 kDa | 75-90% | Increased IFN-β and RANTES expression
